Measurements taken from publication PMC4882459.

Biological target: ES-62 (Acanthocheilonema viteae)
Assay: SPR; Biacore 3000; 300 RU of ES-62 amine-coupled to a CM5 chip; CRP 10 ug/ml to 20 ng/ml flowed at 10 ul/min; HBS with 1 mM CaCl2 and 0.005% P20, pH 7.4; Langmuir 1:1 analysis, ka and kd calculated separately; avidity

B1: C-reactive protein (native, human) (natural protein)
chain: QTDMSRKAFVFPKESDTSYVSLKAPLTKPLKAFTVCLHFYTELSSTRGYSIFSYATKRQDNEILIFWSKDIGYSFTVGGSEILFEVPEVTVAPVHICTSWESASGIVEFWVDGKPRVRKSLKKGYTVGAEASIILGQEQDSFGGNFEGSQSLVGDIGNVNMWDFVLSPDEINTIYLGGPFSPNVLNWRALKYEVQGEVFTKPQLWP
  Kd: 0.1 nM
  koff: 0.0006 to 0.0014 s⁻¹
